B1: TRIM43 (parent)
chain: YQEIFQQLQRSWVKMDQKSKHLKE

Variants of: B1
Test: protein stability index of a GFP-peptide fusion (GPS, HEK-293T) (PSI 1-6); higher = more stable
Conditions: c terminus: a fixed tail appended
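Further: lentivirally expressed fusions sorted by FACS into six bins by GFP to DsRed ratio, PSI derived from sequencing read proportions per bin multiplied by bin number.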

Variant | protein stability index
YQDIFQQLQRSWVKMDQKSKHLKE | 2.18
YQPIFQQLQRSWVKMDQKSKHLKE | 1.69
YQHIFQQLQRSWVKMDQKSKHLKE | 2.47
YQFIFQQLQRSWVKMDQKSKHLKE | 1.53
YQAIFQQLQRSWVKMDQKSKHLKE | 2.23
YQWIFQQLQRSWVKMDQKSKHLKE | 1.68
YQKIFQQLQRSWVKMDQKSKHLKE | 1.76
YQIIFQQLQRSWVKMDQKSKHLKE | 2.29
YQQIFQQLQRSWVKMDQKSKHLKE | 1.63
YQYIFQQLQRSWVKMDQKSKHLKE | 2.39
YQMIFQQLQRSWVKMDQKSKHLKE | 2.13
YQNIFQQLQRSWVKMDQKSKHLKE | 1.58
YQSIFQQLQRSWVKMDQKSKHLKE | 2.11
YQVIFQQLQRSWVKMDQKSKHLKE | 1.93
YQLIFQQLQRSWVKMDQKSKHLKE | 1.79
YQGIFQQLQRSWVKMDQKSKHLKE | 1.35
YQTIFQQLQRSWVKMDQKSKHLKE | 1.52
YQCIFQQLQRSWVKMDQKSKHLKE | 2.13
YQRIFQQLQRSWVKMDQKSKHLKE | 3.7
YQEIFQMLQRSWVKMDQKSKHLKE | 2.13
YQEIFQRLQRSWVKMDQKSKHLKE | 1.66
YQEIFQSLQRSWVKMDQKSKHLKE | 2.89
YQEIFQWLQRSWVKMDQKSKHLKE | 3.41
YQEIFQFLQRSWVKMDQKSKHLKE | 1.52

Variant | protein stability index
YQEIFQNLQRSWVKMDQKSKHLKE | 2.23
YQEIFQLLQRSWVKMDQKSKHLKE | 2.11
YQEIFQYLQRSWVKMDQKSKHLKE | 2.53
YQEIFQCLQRSWVKMDQKSKHLKE | 1.94
YQEIFQELQRSWVKMDQKSKHLKE | 2.52
YQEIFQKLQRSWVKMDQKSKHLKE | 1.61
YQEIFQALQRSWVKMDQKSKHLKE | 1.87
YQEIFQILQRSWVKMDQKSKHLKE | 2.08
YQEIFQTLQRSWVKMDQKSKHLKE | 1.82
YQEIFQVLQRSWVKMDQKSKHLKE | 1.65
YQEIFQDLQRSWVKMDQKSKHLKE | 2.79
YQEIFQPLQRSWVKMDQKSKHLKE | 2.28
YQEIFQGLQRSWVKMDQKSKHLKE | 2.59
YQEIFQHLQRSWVKMDQKSKHLKE | 2.42
YYEIFQQLQRSWVKMDQKSKHLKE | 1.72
YMEIFQQLQRSWVKMDQKSKHLKE | 1.82
YHEIFQQLQRSWVKMDQKSKHLKE | 1.58
YPEIFQQLQRSWVKMDQKSKHLKE | 2.15
YSEIFQQLQRSWVKMDQKSKHLKE | 1.22
YIEIFQQLQRSWVKMDQKSKHLKE | 1.52
YKEIFQQLQRSWVKMDQKSKHLKE | 2.19
YFEIFQQLQRSWVKMDQKSKHLKE | 1.55
YGEIFQQLQRSWVKMDQKSKHLKE | 1.66
YVEIFQQLQRSWVKMDQKSKHLKE | 1.72

Variant | protein stability index
YLEIFQQLQRSWVKMDQKSKHLKE | 1.67
YEEIFQQLQRSWVKMDQKSKHLKE | 3.44
YREIFQQLQRSWVKMDQKSKHLKE | 1.56
YNEIFQQLQRSWVKMDQKSKHLKE | 2.14
YTEIFQQLQRSWVKMDQKSKHLKE | 2.18
YWEIFQQLQRSWVKMDQKSKHLKE | 2.3
YQEIFQQLQWSWVKMDQKSKHLKE | 1.89
YQEIFQQLQTSWVKMDQKSKHLKE | 1.94
YQEIFQQLQNSWVKMDQKSKHLKE | 2.84
YQEIFQQLQISWVKMDQKSKHLKE | 2.95
YQEIFQQLQHSWVKMDQKSKHLKE | 2.27
YQEIFQQLQCSWVKMDQKSKHLKE | 1.96
YQEIFQQLQQSWVKMDQKSKHLKE | 2.35
YQEIFQQLQPSWVKMDQKSKHLKE | 2.55
YQEIFQQLQESWVKMDQKSKHLKE | 2.66
YQEIFQQLQYSWVKMDQKSKHLKE | 1.79
YQEIFQQLQASWVKMDQKSKHLKE | 2.74
YQEIFQQLQFSWVKMDQKSKHLKE | 1.78
YQEIFQQLQDSWVKMDQKSKHLKE | 2.99
YQEIFQQLQKSWVKMDQKSKHLKE | 2.12
YQEIFQQLQVSWVKMDQKSKHLKE | 2.26
YQEIFQQLQLSWVKMDQKSKHLKE | 2.4
YQEIFQQLQMSWVKMDQKSKHLKE | 2.57
YQEIFQQLQGSWVKMDQKSKHLKE | 3.03

Variant | protein stability index
YQEIFQQLQSSWVKMDQKSKHLKE | 2.71
YQEIFWQLQRSWVKMDQKSKHLKE | 2.03
YQEIFAQLQRSWVKMDQKSKHLKE | 2.04
YQEIFVQLQRSWVKMDQKSKHLKE | 1.85
YQEIFRQLQRSWVKMDQKSKHLKE | 2.63
YQEIFKQLQRSWVKMDQKSKHLKE | 1.85
YQEIFHQLQRSWVKMDQKSKHLKE | 2.17
YQEIFTQLQRSWVKMDQKSKHLKE | 2.8
YQEIFLQLQRSWVKMDQKSKHLKE | 1.55
YQEIFMQLQRSWVKMDQKSKHLKE | 2.49
YQEIFFQLQRSWVKMDQKSKHLKE | 1.93
YQEIFCQLQRSWVKMDQKSKHLKE | 2.07
YQEIFEQLQRSWVKMDQKSKHLKE | 2.95
YQEIFIQLQRSWVKMDQKSKHLKE | 2.27
YQEIFSQLQRSWVKMDQKSKHLKE | 2.19
YQEIFNQLQRSWVKMDQKSKHLKE | 2.21
YQEIFPQLQRSWVKMDQKSKHLKE | 2.28
YQEIFGQLQRSWVKMDQKSKHLKE | 2.52
YQEIFYQLQRSWVKMDQKSKHLKE | 2.65
YQEIFDQLQRSWVKMDQKSKHLKE | 2.74
YQEFFQQLQRSWVKMDQKSKHLKE | 1.8
YQERFQQLQRSWVKMDQKSKHLKE | 2.05

— the supplement of paper PMC10567573
